# Laboratory results as given in the supplement of paper PMC9732359.
# ± gives the uncertainty stated by the source.
# Experiment: protein stability index of a GFP-peptide fusion (yeast GPS) (PSI 1-4); higher = more stable; sorted into four equal gates, so the index is relative within each strain
# In short: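 The protein stability index combines read frequencies across sorting gates, each weighted by its gate number and then summed. To obtain those frequencies, a pooled yeast library of GFP fusions to tiled 17-residue yeast protein peptides, on a plasmid also expressing Cherry, was grown to mid-log phase in leucine-free medium. The cells were sorted into four equal gates by GFP/Cherry ratio before plasmid amplification by PCR and Illumina sequencing.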
Sequence,protein stability index (doa10∆),protein stability index (pdr5∆),protein stability index (san1∆),protein stability index (ubr1∆)
GVSRQIAASAFLSLLNL [REC8],1.5 ± 0.047,1.31 ± 0.045,1.17 ± 0.14,1.23 ± 0.038
VLARISPELSLQRHLSL [RRP43],2.47 ± 0.054,2.04 ± 0.072,2.02 ± 0.093,2.47 ± 0.05
NINFASGVKNDILQSLS [CDC53],2.11 ± 0.066,2.39 ± 0.045,1.65 ± 0.053,1.66 ± 0.045
MNIKPVQKQTRAGQRTR [RPS2],2.67 ± 0.1,2.81 ± 0.11,1.92 ± 0.089,2.58 ± 0.073
SLHSNSFSLTVSKEQFL [YJL039C/NUP192],1.81 ± 0.065,1.8 ± 0.072,1.84 ± 0.12,1.43 ± 0.078
EVSDFDEMYELTDPMTV [DIB1],,3.48 ± 0.18,2.94 ± 0.23,2.85 ± 0.26
GKEHIVAALVSLTEKFS [ECM29],1.73 ± 0.047,1.95 ± 0.055,1.58 ± 0.084,1.63 ± 0.042
PQKYVLHPQLHEVQYQE [SIN4],1.49 ± 0.13,1.88 ± 0.082,2.15 ± 0.14,1.6 ± 0.064
LLTVTPGPRLLYENIAS [RPN10],1.86 ± 0.036,1.92 ± 0.054,1.95 ± 0.086,1.82 ± 0.035
DVSRVAAVETLYQDMAA [RPL20A],2.66 ± 0.066,2.67 ± 0.08,2.37 ± 0.089,2.09 ± 0.071
FGELQFAFLNAMFFGNY [AAR2],2.87 ± 0.069,2.61 ± 0.085,2.94 ± 0.067,3 ± 0.064
STGCVVGLSQPDAKIQV [YMR129W/POM152],2.29 ± 0.15,2.47 ± 0.21,2.47 ± 0.063,2.42 ± 0.091
NSVRNSLLLAHFFSKSC [NUT1],1.74 ± 0.05,1.28 ± 0.041,1.19 ± 0.078,1.18 ± 0.035
IDEHIDLGIKYDPSIGI [RPL11A],2.84 ± 0.035,3.06 ± 0.039,2.91 ± 0.03,2.903 ± 0.029
IVMQLRKCCNHPYLFEG [ISW2],2.78 ± 0.087,2.53 ± 0.11,2.74 ± 0.069,2.78 ± 0.11
SIVLLLLSQFGIKVLPE [YML103C/NUP188],1.8 ± 0.096,1.28 ± 0.085,1.18 ± 0.13,1.42 ± 0.033
RQTGPAKINEVYNNSKD [NSL1],3.06 ± 0.087,3.06 ± 0.083,2.93 ± 0.073,2.9 ± 0.062
SAGQPNLLLSASRDKTL [ASC1],2.4 ± 0.063,2.77 ± 0.05,2.7 ± 0.041,1.91 ± 0.049
NLNAFVDFSKYNTNFNL [SRP72],3.19 ± 0.12,2.81 ± 0.12,3.09 ± 0.048,2.17 ± 0.08
LNESRSQHKKILEELDF [SMC3],3.38 ± 0.12,3.26 ± 0.098,3.01 ± 0.069,3.06 ± 0.082
DSETSDPNEVEIKKLLA [DIS3],2.9 ± 0.075,3.07 ± 0.069,2.82 ± 0.075,3.27 ± 0.094
VLITDHIEKLENEFVVL [CDC53],3.05 ± 0.061,2.61 ± 0.055,2.1 ± 0.087,2.58 ± 0.054
SEHDKKRLSAALSKFLT [YML103C/NUP188],2.99 ± 0.09,3.08 ± 0.09,3.06 ± 0.068,3.13 ± 0.071
NNNINENELFNDRKQTT [SSN2],2.71 ± 0.12,3.09 ± 0.1,2.87 ± 0.1,2.78 ± 0.14
FEGTDDNEEASVKLDLQ [BRN1],3.2 ± 0.17,3.65 ± 0.11,3.49 ± 0.096,3.35 ± 0.098
EELKDSEINEILARNDE [SNF2],3.2 ± 0.18,3.55 ± 0.12,2.66 ± 0.13,3.32 ± 0.089

Sequence,protein stability index (doa10∆),protein stability index (pdr5∆),protein stability index (san1∆),protein stability index (ubr1∆)
SVNKNKRQAYAVSEKAG [RPL4A],,1.69 ± 0.17,,3.29 ± 0.13
KVDWAREHFEKTVAVDS [RPL3],1.8 ± 0.18,,1.54 ± 0.15,1.9 ± 0.15
DLSANQRETMKERKLRE [SMC1],3.3 ± 0.13,3.06 ± 0.096,2.96 ± 0.091,3.42 ± 0.063
GTHNMYKEIRDVSRVAA [RPL20A],1.96 ± 0.089,2.22 ± 0.14,2.03 ± 0.1,2.29 ± 0.083
SAIVNEDGLLEGLDELP [SOH1],2.95 ± 0.14,3.24 ± 0.082,2.78 ± 0.15,2.8 ± 0.12
PQDILSKLYLLLARVFE [SNF11],2.14 ± 0.044,2.37 ± 0.052,2.2 ± 0.069,2.4 ± 0.041
VLESIVARTFWASKYGQ [BRR2],2.74 ± 0.063,2.37 ± 0.062,2.47 ± 0.096,2.61 ± 0.067
ENPNFWRQFGNRMQISP [GRR1],3.14 ± 0.13,3.02 ± 0.13,2.93 ± 0.11,2.76 ± 0.12
SRKRKPKSASNTSSKRQ [IRR1],2.86 ± 0.1,2.7 ± 0.14,2.89 ± 0.085,3.09 ± 0.069
PSKVSKIDSHVVLSFSG [PRE6],1.71 ± 0.062,1.77 ± 0.058,1.74 ± 0.12,1.87 ± 0.057
NQNFSLTFQPQQQTNAL [GRR1],2.95 ± 0.065,3.2 ± 0.061,3.02 ± 0.067,2.94 ± 0.057
EKYAAAAPAATSAASGD [RPP0],2.47 ± 0.097,2.15 ± 0.074,1.88 ± 0.13,2.78 ± 0.048
MTTEDPDSNHLSSETGI [SRB4],3.15 ± 0.12,2.85 ± 0.2,3.37 ± 0.076,3.04 ± 0.081
YPDLKAFHNNLKFLYLL [MED1],2.06 ± 0.059,2.04 ± 0.05,1.83 ± 0.074,1.93 ± 0.037
IHSLVKQRLDLARQVKL [YIL149C/MLP2],2.69 ± 0.064,2.6 ± 0.061,3.03 ± 0.064,2.83 ± 0.047
KLKDSKKLFQKKENLTR [YML103C/NUP188],2.57 ± 0.12,3.3 ± 0.1,2.97 ± 0.11,3.25 ± 0.1
VGVNKDSYLILDTLPSE [RPT5],3.15 ± 0.069,3.18 ± 0.08,3.19 ± 0.078,3.14 ± 0.032
IKGQCLATLLGHNDWVS [ASC1],1.37 ± 0.083,1.69 ± 0.083,1.72 ± 0.11,1.65 ± 0.066
KQNNKDFRTRYIDIRTN [MTW1],2.69 ± 0.07,2.65 ± 0.072,2.31 ± 0.1,2.62 ± 0.077
DIKAAVDDSMELCGQIR [ITC1],2.65 ± 0.092,2.82 ± 0.12,2.21 ± 0.17,2.9 ± 0.14
VRSLLEVVQTGAKNIEI [PRE6],3.38 ± 0.14,3.29 ± 0.098,3.06 ± 0.074,3.21 ± 0.069
KKYSSKNKYGEINSEDY [SRP68],3.22 ± 0.12,2.8 ± 0.18,3.34 ± 0.066,3.14 ± 0.053
LYRSIESGEFDFDLFKE [YJL039C/NUP192],3.1 ± 0.12,2.93 ± 0.1,3.01 ± 0.069,2.91 ± 0.11
LNRFNFQNTNTRSALKL [QCR2],2.71 ± 0.076,2.91 ± 0.069,2.83 ± 0.075,2.62 ± 0.074
EENWDDVEVDDDFTNEL [SEM1],,3.13 ± 0.22,3.05 ± 0.2,3.3 ± 0.19
SCKDSQLKWAQNTIDDT [YIL149C/MLP2],2.15 ± 0.042,2.89 ± 0.057,2.65 ± 0.046,2.74 ± 0.053
